The record followed here is patent publication US20240415884A1 (UNIVERSITY OF PITTSBURGH OF THE COMMONWEALTH SYSTEM OF …, published 2024).

The target in experiment [1] is T1, human CD276 polypeptide (antigen of the ELISA of Clones #1-#8) (human, UniProt Q5ZPR3 29-461, limits assumed).
T1 construct: For panning it was fused at its C-terminus to human IgG1 Fc (CD276-Fc); also called B7-H3
T1 sequence: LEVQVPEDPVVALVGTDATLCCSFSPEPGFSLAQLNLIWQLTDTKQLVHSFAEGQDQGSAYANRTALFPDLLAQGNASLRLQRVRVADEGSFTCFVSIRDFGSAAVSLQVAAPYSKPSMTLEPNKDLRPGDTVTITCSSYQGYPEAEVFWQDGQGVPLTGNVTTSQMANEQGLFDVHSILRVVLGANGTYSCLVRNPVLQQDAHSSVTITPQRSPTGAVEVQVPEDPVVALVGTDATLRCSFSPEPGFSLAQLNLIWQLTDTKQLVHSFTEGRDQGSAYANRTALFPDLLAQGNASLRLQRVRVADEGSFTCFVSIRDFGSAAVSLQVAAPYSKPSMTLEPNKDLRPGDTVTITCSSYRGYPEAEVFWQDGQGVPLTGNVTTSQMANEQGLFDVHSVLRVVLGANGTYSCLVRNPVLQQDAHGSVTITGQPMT
Briefly: ELISA on a human CD276 polypeptide.

The target of experiment [2] is T2, 4Ig CD276 polypeptide with his tag (human, UniProt Q5ZPR3 29-466).
T2 construct: extracellular domain; SPR antigen; also called 4Ig CD276-his; not shown: his tag
T2 sequence (looked up): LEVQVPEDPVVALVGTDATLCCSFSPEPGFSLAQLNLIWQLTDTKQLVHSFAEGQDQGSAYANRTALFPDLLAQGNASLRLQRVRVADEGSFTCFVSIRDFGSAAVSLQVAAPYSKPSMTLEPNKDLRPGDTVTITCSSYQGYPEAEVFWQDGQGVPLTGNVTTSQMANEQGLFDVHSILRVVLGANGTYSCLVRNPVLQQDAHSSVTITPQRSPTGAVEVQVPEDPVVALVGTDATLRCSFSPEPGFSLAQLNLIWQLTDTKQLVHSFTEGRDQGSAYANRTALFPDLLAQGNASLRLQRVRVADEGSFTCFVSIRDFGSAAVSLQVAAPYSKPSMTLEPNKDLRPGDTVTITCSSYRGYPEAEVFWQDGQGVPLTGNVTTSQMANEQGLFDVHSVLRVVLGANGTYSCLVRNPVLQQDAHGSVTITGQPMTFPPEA
In words: SPR, panel CD276-His; sensorgrams with fits, response up to about 18 RU; which partner is on the chip is not stated.

Experiment [3] deals with T3, recombinant CD276 polypeptide that included four Ig-like extracellular domains (human, UniProt Q5ZPR3 29-466).
T3 construct: extracellular domain; also called 4Ig CD276 polypeptide; a CD276 polypeptide
T3 sequence (looked up): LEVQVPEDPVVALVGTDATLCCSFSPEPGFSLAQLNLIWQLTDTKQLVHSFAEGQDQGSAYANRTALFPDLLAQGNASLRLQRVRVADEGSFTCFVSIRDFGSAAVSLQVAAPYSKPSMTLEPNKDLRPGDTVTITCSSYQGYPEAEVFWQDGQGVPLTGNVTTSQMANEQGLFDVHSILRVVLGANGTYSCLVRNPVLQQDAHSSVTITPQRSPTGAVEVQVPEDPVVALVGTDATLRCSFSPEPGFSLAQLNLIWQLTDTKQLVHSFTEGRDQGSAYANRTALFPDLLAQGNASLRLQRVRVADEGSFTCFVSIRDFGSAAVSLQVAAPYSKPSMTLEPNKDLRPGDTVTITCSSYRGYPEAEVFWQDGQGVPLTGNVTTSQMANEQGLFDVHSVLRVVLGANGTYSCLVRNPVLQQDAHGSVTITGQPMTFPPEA
Briefly: ELISA on recombinant CD276 polypeptide with four Ig-like extracellular domains (FIG. 28). The method, then: Clones #9 and #10, two VH binders, bound to a CD276 polypeptide with EC₅₀ values of 8.1 and 1.2 nM, respectively, as tested by ELISA. […] The molecular weight of these two clones were validated by mass spectrum. The binding kinetics of clone #9 and #10 to the 4Ig CD276 polypeptide with both his tag and Fc tag were measured by surface plasmon resonance. […] See, FIGS. 28-32.
On the technique in general: An ELISA detects its analyte on a solid surface through an enzyme-linked reagent.

Experiment [4] concerns the target T4, 4Ig CD276 polypeptide with Fc tag (human, UniProt Q5ZPR3 29-466).
T4 construct: extracellular domain; SPR antigen; also called 4Ig CD276-Fc; not shown: Fc tag
T4 sequence (looked up): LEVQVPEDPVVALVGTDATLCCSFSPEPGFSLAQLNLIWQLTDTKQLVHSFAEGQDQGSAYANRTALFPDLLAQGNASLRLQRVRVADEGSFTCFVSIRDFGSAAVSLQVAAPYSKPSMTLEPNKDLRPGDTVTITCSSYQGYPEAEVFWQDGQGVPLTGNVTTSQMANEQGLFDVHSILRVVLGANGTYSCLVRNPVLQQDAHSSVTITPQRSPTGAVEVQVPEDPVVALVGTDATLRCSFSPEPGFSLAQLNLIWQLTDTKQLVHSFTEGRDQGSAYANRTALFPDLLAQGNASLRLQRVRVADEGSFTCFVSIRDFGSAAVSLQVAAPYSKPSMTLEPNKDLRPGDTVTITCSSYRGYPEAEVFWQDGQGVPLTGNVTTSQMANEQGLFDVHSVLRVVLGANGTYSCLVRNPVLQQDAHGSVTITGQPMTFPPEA
In words: SPR, panel CD276-Fc; sensorgrams with fits, response up to about 15 RU; which partner is on the chip is not stated. (In general: Surface plasmon resonance follows binding to a sensor surface in real time, without labels.)

In experiment [5] the target is T2, 4Ig CD276 polypeptide with his tag. Briefly: SPR, panel CD276-His; sensorgrams with fits, response up to about 12 RU; which partner is on the chip is not stated.
Experiment [6] concerns the target T4, 4Ig CD276 polypeptide with Fc tag. In words: SPR, panel CD276-Fc; sensorgrams with fits, response up to about 11 RU; which partner is on the chip is not stated.

B1: Clone #2 (ab2) (Fab, V domains shown)
VH: QVQLVESGGGLVKPGGSLRLSCAASGFTFSDYYMSWIRQAPGKGLEWVSYISSSGSTIYYADSVKGRFTISRDNAKNSLYLQMNSLRAEDTAVYYCARRGAMGHHDGFDMWGLGTMVTVSS
VL: DIQMTQSPSSLSASVGDRVTITCRASQSISSYLNWYQQKPGKAPKLLIYAASSLQSGVPSRFSGSGSGTDFTLTISSLQPEDVAVYYCQQRSNWPLYTFGQGTKLEIKR
notes: also called #2 (Fab)
The term EC50 denotes the concentration giving half of the maximal effect. On to B1, for which, in experiment [1], the EC50 was found to be 46 nM.

B2: Clone #6 (ab6) (VHH)
VHH: EVQLVESGGGLVQPGGSLRLSCAASGSPFPHYEMSWVRQAPGKGLEWMGWINTNTGKSTYAQGFTGRFTISRDNSKNTLYLQMNSLRAEDTAVYYCARSGYGYYFDYWGQGTLVTVSS
notes: also called #6 (VH domain)
Regarding B2, in experiment [1], the EC50 worked out at 10 nM.

B3: Clone #5 (ab5) (VHH)
VHH: EVQLVESGGGLVQPGGSLRLSCAASPFPFTIYEMSWVRQASGKALEWIGYINHSGSTNYNPSLKSRVTISRDNSKNTLYLQMNSLRAEDTAMYYCAILAPDYWGQGTLVTVSS
notes: also called #5 (VH domain)
Take B3: in experiment [1], a half-maximal effect (EC50) was put at 1.2 nM.

B4: Clone #1 (ab1) (Fab, V domains shown)
VH: QVQLVESGGGLVKPGGSLRLSCAASGFTFSDYYMSWIRQAPGKGLEWVSYISSSGSTIYYADSVKGRFTISRDNAKNSLYLQMNSLRAEDTAVYYCARGINFGLDIWGQGTTVTVSS
VL: DIQMTQSPSSLSASVGDRVTITCRASQSISSYLNWYQQKPGKAPKLLIYAASSLQSGVPSRFSGSGSGTDFTLTISSLQPEDVGVYYCMQALQTLFGQGTKVDIKR
notes: also called #1 (Fab)
On to B4, for which the EC50 in experiment [1] was found to be 34 nM.

B5: Clone #10 (ab10) (VHH)
VHH: EVQLVESGGGVVQPGRSLRLSCAASGFTFSSYAMHWVRQAPGKGLEWIGEIYHGGSTDYNPSLKSRVTISRDDSTNTLYLQMNSLRAEDTAVYYCTRGGKRLLSVYGVDVWGQGTMVTVSS
notes: also called C7; #10 (VH domain)
Usually Kd stands for the concentration at which binding is half-saturated. As for B5, the Kd in experiment [2] was determined as 7.83 nM; in experiment [4], 5.2 nM. Also, in experiment [3], the EC50 turned out to be 1.2 nM.

B6: Clone #8 (ab8) (Fab, V domains shown)
VH: QVQLVESGGGLVKPGGSLRLSCAASGFTFSDYYMSWIRQAPGKGLEWVSYISSSGSTIYYADSVKGRFTISRDNAKNSLYLQMNSLRAEDTAVYYCARDAPTSGWKWFAPDYWGQGALVTVSS
VL: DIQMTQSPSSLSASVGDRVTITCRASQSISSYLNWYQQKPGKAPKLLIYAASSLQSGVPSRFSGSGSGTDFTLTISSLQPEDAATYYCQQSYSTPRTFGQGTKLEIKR
notes: also called #8 (Fab)
The molecule B6 showed an EC50 in experiment [1] of 4 nM.

B7: Clone #9 (ab9) (VHH)
VHH: EVQLVESGGGVVQPGRSLRLSCAASGFTFSSYAMHWVRQAPGQGLEWVSTIGPRGINTHYADSVKGRFTISRDNSKNTLYLQMNSLRAEDTATYYCARDRVGYNSYGMDVWGQGTMVTVSS
notes: also called A10; #9 (VH domain)
As to B7, the EC50 in experiment [3] turned out to be 8.1 nM. Also, the results for the Kd in experiment [5] and in experiment [6] were 6 nM and 5.3 nM, respectively.

B8: Clone #3 (ab3) (Fab, V domains shown)
VH: QVQLVESGGGLVKPGGSLRLSCAASGFTFSDYYMSWIRQAPGKGLEWVSYISSSGSTIYYADSVKGRFTISRDNAKNSLYLQMNSLRAEDTAVYYCARRGGSYYARGAFDIWGQGTMVTVSS
VL: DIQMTQSPSSLSASVGDRVTITCRASQSISSYLNWYQQKPGKAPKLLIYAASSLQSGVPSRFSGSGSGTDFTLTISSLQPEDAATYYCQHRSDWPPKFTFGPGTKVDIKR
notes: also called #3 (Fab)
B8 registered an EC50 in experiment [1] of 26 nM.

B9: Clone #4 (ab4) (VHH)
VHH: EVQLVESGGGLVQPGGSLRLSCAASWFDFQDYDMSWVRQAPGKGLEWIGEINHSGSTNYNPSLKSRVTISRDNSKNTLYLQMNSLRAEDTAVYYCAKIGYWGQGTLVTVSS
notes: kind VHH is used for single domain; also called #4 (VH domain)
In experiment [1], B9 showed an EC50 of 0.9 nM.

B10: Clone #7 (ab7) (VHH)
VHH: EVQLVESGGGLVQPGGSLRLSCAASGFTFSSYAMSWVRQAPGQGLEWIGEINHSGSTNYNPSLKSRVTISRDNSKNTLYLQMNSLRAEDTAVYYCVHIDYWGQGTLVAVSS
notes: also called #7 (VH domain)
B10 yielded an EC50 in experiment [1] of 0.6 nM.
